T1: PARD3B_1, Q8TEW8
T1 sequence (Q8TEW8 196-299, limits assumed, looked up): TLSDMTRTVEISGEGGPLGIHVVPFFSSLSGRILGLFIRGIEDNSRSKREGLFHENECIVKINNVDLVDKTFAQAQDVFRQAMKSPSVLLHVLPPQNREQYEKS

T2: NHERF3_1, Q5T2W1
T2 sequence (Q5T2W1 4-100, limits assumed, looked up): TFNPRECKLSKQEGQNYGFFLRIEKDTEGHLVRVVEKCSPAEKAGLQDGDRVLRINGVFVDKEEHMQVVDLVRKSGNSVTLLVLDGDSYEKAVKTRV

T3: APBA1_2, Q02410
T3 sequence (Q02410 742-832, limits assumed, looked up): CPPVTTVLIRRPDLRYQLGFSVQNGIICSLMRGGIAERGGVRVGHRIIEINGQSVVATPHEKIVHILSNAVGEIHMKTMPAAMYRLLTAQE

T4: SNTG1, Q9NSN8
T4 sequence (Q9NSN8 52-150, limits assumed, looked up): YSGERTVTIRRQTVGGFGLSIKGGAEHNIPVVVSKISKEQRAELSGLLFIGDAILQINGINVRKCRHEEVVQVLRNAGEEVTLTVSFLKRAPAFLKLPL

T5: LRRC7, Q96NW7
T5 sequence (Q96NW7 1440-1537, limits assumed, looked up): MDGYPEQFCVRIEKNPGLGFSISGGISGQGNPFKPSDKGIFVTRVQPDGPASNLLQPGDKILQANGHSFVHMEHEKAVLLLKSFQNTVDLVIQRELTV

T6: CARD11, Q9BXL7
T6 sequence (Q9BXL7 662-765, limits assumed, looked up): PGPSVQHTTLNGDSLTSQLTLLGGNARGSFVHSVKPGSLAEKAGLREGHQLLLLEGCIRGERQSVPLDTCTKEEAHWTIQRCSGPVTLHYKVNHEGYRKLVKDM

T7: SNTG2, Q9NY99
T7 sequence (Q9NY99 68-166, limits assumed, looked up): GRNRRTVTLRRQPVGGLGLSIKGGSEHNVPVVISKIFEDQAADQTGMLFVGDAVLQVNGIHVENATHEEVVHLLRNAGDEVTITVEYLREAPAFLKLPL

T8: MPP6, Q9NZW5
T8 sequence (Q9NZW5 125-219, limits assumed, looked up): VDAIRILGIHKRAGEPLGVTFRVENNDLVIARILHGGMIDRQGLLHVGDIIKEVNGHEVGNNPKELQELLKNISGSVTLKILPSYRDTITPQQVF

T9: NHERF3_3, Q5T2W1
T9 sequence (Q5T2W1 238-333, limits assumed, looked up): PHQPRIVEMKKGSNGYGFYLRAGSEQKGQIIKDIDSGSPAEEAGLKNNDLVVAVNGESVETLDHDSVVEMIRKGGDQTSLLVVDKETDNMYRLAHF

B1: HNRNPK, P61978;P61978-2 (peptide)
chain: VKQYADVEGF
B2: SLC9A3, P48764 (peptide)
chain: PAALPESTHM
B3: PALLS, Q8WX93;Q8WX93-1 (peptide)
chain: NTALVESEDL

What follows are binders tested against T1, PARD3B_1, Q8TEW8 (assay: holdup assay). Conditions: plain residues with an end cap or a label only (N-terminal biotin on a linker: ado-ado).
Design: key: below the threshold = too weak to quantify, mostly under pKd 3.1 to 4

pKd	Binder
below the threshold	B1
3.6	B2

These binders were tested against T2, NHERF3_1, Q5T2W1 (assay: holdup assay). Conditions: plain residues with an end cap or a label only (N-terminal biotin on a linker: ado-ado).
Design: key: below the threshold = too weak to quantify, mostly under pKd 3.1 to 4

pKd	Binder
below the threshold	B3
5.37	B2

These binders were tested against T3, APBA1_2, Q02410 (assay: holdup assay). Conditions: plain residues with an end cap or a label only (N-terminal biotin on a linker: ado-ado).
Design: key: below the threshold = too weak to quantify, mostly under pKd 3.1 to 4

pKd	Binder
below the threshold	B1
below the threshold	B3
below the threshold	B2

What follows are binders tested against PICK1, Q9NRD5 (assay: holdup assay). Conditions: plain residues with an end cap or a label only (N-terminal biotin on a linker: ado-ado).
Design: key: below the threshold = too weak to quantify, mostly under pKd 3.1 to 4

PICK1, Q9NRD5, sequence (Q9NRD5 17-115): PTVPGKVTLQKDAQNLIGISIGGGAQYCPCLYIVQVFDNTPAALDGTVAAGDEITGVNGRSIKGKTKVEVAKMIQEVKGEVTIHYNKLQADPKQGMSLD

pKd	Binder
below the threshold	B1
below the threshold	B3
4.11	B2

Each binder was assayed against T4, SNTG1, Q9NSN8 (assay: holdup assay). Conditions: plain residues with an end cap or a label only (N-terminal biotin on a linker: ado-ado).
Design: key: below the threshold = too weak to quantify, mostly under pKd 3.1 to 4

pKd	Binder
below the threshold	B1
below the threshold	B3
below the threshold	B2

Each binder was assayed against PTPN3, P26045 (assay: holdup assay). Conditions: plain residues with an end cap or a label only (N-terminal biotin on a linker: ado-ado).
Design: key: below the threshold = too weak to quantify, mostly under pKd 3.1 to 4

PTPN3, P26045, sequence (P26045 505-587): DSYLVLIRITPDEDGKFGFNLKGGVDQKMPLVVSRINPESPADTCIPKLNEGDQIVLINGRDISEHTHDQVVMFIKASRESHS

pKd	Binder
3.93	B1
4.33	B3
below the threshold	B2

The binders below were run against Inadl_3, Q8NI35 (assay: holdup assay). Conditions: plain residues with an end cap or a label only (N-terminal biotin on a linker: ado-ado).
Design: key: below the threshold = too weak to quantify, mostly under pKd 3.1 to 4

Inadl_3, Q8NI35, sequence (Q8NI35 359-469): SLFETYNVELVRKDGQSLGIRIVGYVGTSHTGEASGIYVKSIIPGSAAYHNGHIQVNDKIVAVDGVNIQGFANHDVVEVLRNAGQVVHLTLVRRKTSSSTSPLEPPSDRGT

pKd	Binder
below the threshold	B1
below the threshold	B3
below the threshold	B2

Each binder was assayed against DLG2_2, Q15700 (assay: holdup assay). Conditions: plain residues with an end cap or a label only (N-terminal biotin on a linker: ado-ado).
Design: key: below the threshold = too weak to quantify, mostly under pKd 3.1 to 4

DLG2_2, Q15700, sequence (Q15700 189-283): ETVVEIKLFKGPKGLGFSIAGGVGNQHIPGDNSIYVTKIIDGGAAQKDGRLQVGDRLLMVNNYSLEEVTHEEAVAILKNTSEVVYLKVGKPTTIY

pKd	Binder
below the threshold	B1
below the threshold	B3
below the threshold	B2

Each binder was assayed against DLG5_1, Q8TDM6 (assay: holdup assay). Conditions: plain residues with an end cap or a label only (N-terminal biotin on a linker: ado-ado).
Design: key: below the threshold = too weak to quantify, mostly under pKd 3.1 to 4

DLG5_1, Q8TDM6, sequence (Q8TDM6 617-713): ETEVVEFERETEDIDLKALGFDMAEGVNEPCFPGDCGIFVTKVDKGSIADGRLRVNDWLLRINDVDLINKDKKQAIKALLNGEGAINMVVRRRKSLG

pKd	Binder
below the threshold	B1
below the threshold	B3
below the threshold	B2

The binders below were run against NHERF4_4, Q86UT5 (assay: holdup assay). Conditions: plain residues with an end cap or a label only (N-terminal biotin on a linker: ado-ado).
Design: key: below the threshold = too weak to quantify, mostly under pKd 3.1 to 4

NHERF4_4, Q86UT5, sequence (Q86UT5 464-550): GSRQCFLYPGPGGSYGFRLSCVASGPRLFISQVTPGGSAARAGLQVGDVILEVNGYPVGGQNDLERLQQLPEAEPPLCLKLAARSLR

pKd	Binder
below the threshold	B3
below the threshold	B2

The binders below were run against SCRIB_3, Q14160 (assay: holdup assay). Conditions: plain residues with an end cap or a label only (N-terminal biotin on a linker: ado-ado).
Design: key: below the threshold = too weak to quantify, mostly under pKd 3.1 to 4

SCRIB_3, Q14160, sequence (Q14160 999-1103): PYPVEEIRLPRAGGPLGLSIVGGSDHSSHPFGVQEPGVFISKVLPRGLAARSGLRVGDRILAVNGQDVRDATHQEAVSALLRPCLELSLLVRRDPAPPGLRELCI

pKd	Binder
below the threshold	B1
3.55	B2

What follows are binders tested against DLG1_3, Q12959 (assay: holdup assay). Conditions: plain residues with an end cap or a label only (N-terminal biotin on a linker: ado-ado).
Design: key: below the threshold = too weak to quantify, mostly under pKd 3.1 to 4

DLG1_3, Q12959, sequence (Q12959 457-571): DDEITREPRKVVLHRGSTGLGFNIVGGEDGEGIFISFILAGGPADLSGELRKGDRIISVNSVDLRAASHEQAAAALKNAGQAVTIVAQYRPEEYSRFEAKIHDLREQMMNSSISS

pKd	Binder
below the threshold	B1
below the threshold	B3
below the threshold	B2

These binders were tested against TJP1_3, Q07157 (assay: holdup assay). Conditions: plain residues with an end cap or a label only (N-terminal biotin on a linker: ado-ado).
Design: key: below the threshold = too weak to quantify, mostly under pKd 3.1 to 4

TJP1_3, Q07157, sequence (Q07157 416-512): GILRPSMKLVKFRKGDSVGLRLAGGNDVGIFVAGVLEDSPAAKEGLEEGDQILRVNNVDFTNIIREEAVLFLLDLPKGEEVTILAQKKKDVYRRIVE

pKd	Binder
below the threshold	B1
below the threshold	B3
below the threshold	B2

These binders were tested against IL16_1, Q14005 (assay: holdup assay). Conditions: plain residues with an end cap or a label only (N-terminal biotin on a linker: ado-ado).
Design: key: below the threshold = too weak to quantify, mostly under pKd 3.1 to 4

IL16_1, Q14005, sequence (Q14005 210-306): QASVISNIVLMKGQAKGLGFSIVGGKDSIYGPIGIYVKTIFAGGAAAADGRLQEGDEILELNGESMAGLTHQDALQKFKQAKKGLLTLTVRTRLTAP

pKd	Binder
below the threshold	B1
below the threshold	B3
below the threshold	B2

Each binder was assayed against LNX1_1, Q8TBB1 (assay: holdup assay). Conditions: plain residues with an end cap or a label only (N-terminal biotin on a linker: ado-ado).
Design: key: below the threshold = too weak to quantify, mostly under pKd 3.1 to 4

LNX1_1, Q8TBB1, sequence (Q8TBB1 261-371): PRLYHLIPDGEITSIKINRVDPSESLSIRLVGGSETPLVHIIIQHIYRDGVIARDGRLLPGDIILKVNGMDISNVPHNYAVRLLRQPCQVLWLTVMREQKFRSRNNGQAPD

pKd	Binder
below the threshold	B1
below the threshold	B3
below the threshold	B2

What follows are binders tested against GRIP2_6, Q9C0E4 (assay: holdup assay). Conditions: plain residues with an end cap or a label only (N-terminal biotin on a linker: ado-ado).
Design: key: below the threshold = too weak to quantify, mostly under pKd 3.1 to 4

GRIP2_6, Q9C0E4, sequence (Q9C0E4 648-740): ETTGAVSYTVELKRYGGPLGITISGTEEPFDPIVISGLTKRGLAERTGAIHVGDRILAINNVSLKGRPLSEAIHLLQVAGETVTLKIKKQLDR

pKd	Binder
below the threshold	B1
below the threshold	B3
below the threshold	B2

What follows are binders tested against T5, LRRC7, Q96NW7 (assay: holdup assay). Conditions: plain residues with an end cap or a label only (N-terminal biotin on a linker: ado-ado).
Design: key: below the threshold = too weak to quantify, mostly under pKd 3.1 to 4

pKd	Binder
below the threshold	B1
below the threshold	B3
below the threshold	B2

The binders below were run against T6, CARD11, Q9BXL7 (assay: holdup assay). Conditions: plain residues with an end cap or a label only (N-terminal biotin on a linker: ado-ado).
Design: key: below the threshold = too weak to quantify, mostly under pKd 3.1 to 4

pKd	Binder
below the threshold	B1
below the threshold	B3
below the threshold	B2

The binders below were run against LDB3, O75112 (assay: holdup assay). Conditions: plain residues with an end cap or a label only (N-terminal biotin on a linker: ado-ado).
Design: key: below the threshold = too weak to quantify, mostly under pKd 3.1 to 4

LDB3, O75112, sequence (O75112 1-94): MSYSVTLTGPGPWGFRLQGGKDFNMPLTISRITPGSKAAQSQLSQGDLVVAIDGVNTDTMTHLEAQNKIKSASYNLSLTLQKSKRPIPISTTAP

pKd	Binder
below the threshold	B1
5.16	B3
below the threshold	B2

The binders below were run against T7, SNTG2, Q9NY99 (assay: holdup assay). Conditions: plain residues with an end cap or a label only (N-terminal biotin on a linker: ado-ado).
Design: key: below the threshold = too weak to quantify, mostly under pKd 3.1 to 4

pKd	Binder
below the threshold	B1
below the threshold	B3
below the threshold	B2

These binders were tested against T8, MPP6, Q9NZW5 (assay: holdup assay). Conditions: plain residues with an end cap or a label only (N-terminal biotin on a linker: ado-ado).
Design: key: below the threshold = too weak to quantify, mostly under pKd 3.1 to 4

pKd	Binder
below the threshold	B3
below the threshold	B2

Each binder was assayed against IL16_4, Q14005 (assay: holdup assay). Conditions: plain residues with an end cap or a label only (N-terminal biotin on a linker: ado-ado).
Design: key: below the threshold = too weak to quantify, mostly under pKd 3.1 to 4

IL16_4, Q14005, sequence (Q14005 1229-1329): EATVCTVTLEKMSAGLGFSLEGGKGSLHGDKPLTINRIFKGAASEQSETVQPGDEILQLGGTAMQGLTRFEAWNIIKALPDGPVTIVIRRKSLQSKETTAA

pKd	Binder
below the threshold	B2

Each binder was assayed against SCRIB_1, Q14160 (assay: holdup assay). Conditions: plain residues with an end cap or a label only (N-terminal biotin on a linker: ado-ado).
Design: key: below the threshold = too weak to quantify, mostly under pKd 3.1 to 4

SCRIB_1, Q14160, sequence (Q14160 718-814): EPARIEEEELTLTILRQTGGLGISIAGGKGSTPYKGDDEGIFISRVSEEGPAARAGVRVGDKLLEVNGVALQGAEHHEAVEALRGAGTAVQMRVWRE

pKd	Binder
below the threshold	B1
below the threshold	B3
3.57	B2

These binders were tested against T9, NHERF3_3, Q5T2W1 (assay: holdup assay). Conditions: plain residues with an end cap or a label only (N-terminal biotin on a linker: ado-ado).
Design: key: below the threshold = too weak to quantify, mostly under pKd 3.1 to 4

pKd	Binder
below the threshold	B1
below the threshold	B3
below the threshold	B2

What follows are binders tested against LIMK2, P53671 (assay: holdup assay). Conditions: plain residues with an end cap or a label only (N-terminal biotin on a linker: ado-ado).
Design: key: below the threshold = too weak to quantify, mostly under pKd 3.1 to 4

LIMK2, P53671, sequence (P53671 143-248): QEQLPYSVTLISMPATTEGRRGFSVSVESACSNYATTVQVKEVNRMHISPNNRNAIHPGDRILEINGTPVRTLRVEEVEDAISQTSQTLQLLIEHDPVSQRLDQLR

pKd	Binder
below the threshold	B1
below the threshold	B3
below the threshold	B2

The binders below were run against GRASP, Q7Z6J2 (assay: holdup assay). Conditions: plain residues with an end cap or a label only (N-terminal biotin on a linker: ado-ado).
Design: key: below the threshold = too weak to quantify, mostly under pKd 3.1 to 4

GRASP, Q7Z6J2, sequence (Q7Z6J2 96-193): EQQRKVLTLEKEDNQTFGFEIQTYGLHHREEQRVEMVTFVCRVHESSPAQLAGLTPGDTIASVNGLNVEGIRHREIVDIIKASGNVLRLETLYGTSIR

pKd	Binder
below the threshold	B3
below the threshold	B2

The binders below were run against AHNAK1, Q09666 (assay: holdup assay). Conditions: plain residues with an end cap or a label only (N-terminal biotin on a linker: ado-ado).
Design: key: below the threshold = too weak to quantify, mostly under pKd 3.1 to 4

pKd	Binder
below the threshold	B1
below the threshold	B3
below the threshold	B2

Each binder was assayed against MAGI2_3, Q86UL8 (assay: holdup assay). Conditions: plain residues with an end cap or a label only (N-terminal biotin on a linker: ado-ado).
Design: key: below the threshold = too weak to quantify, mostly under pKd 3.1 to 4

MAGI2_3, Q86UL8, sequence (Q86UL8 600-682): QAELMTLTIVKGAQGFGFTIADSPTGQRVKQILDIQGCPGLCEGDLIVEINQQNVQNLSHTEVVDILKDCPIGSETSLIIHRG

pKd	Binder
below the threshold	B1
below the threshold	B3
below the threshold	B2

Source: article PMC9482650, “Quantitative fragmentomics allow affinity mapping of interactomes” (Nature Communications, 2022)
